Several values for one entry are separate records, joined by “and”; a condition that tells them apart may be missing. Equal entries are not always repeated.
B1: Lysozyme C, P61626 (parent)
chain: MKALIVLGLVLLSVTVQGKVFERCELARTLKRLGMDGYRGISLANWMCLAKWESGYNTRATNYNAGDRSTDYGIFQINSRYWCNDGKTPGAVNACHLSCSALLQDNIADAVACAKRVVRDPQGIRAWVAWRNRCQNRDVRQYVQGCGV

Variants of: B1
Settings: Homo sapiens; pH 2.7; 49.2 °C; Thermal; DSC; glycine 0.05 M; reversible: yes; structure 1LZ1; whole UniProt chain shown

Variant	ddG of mutation (higher = less stable) [kcal/mol]	heat capacity change of unfolding [kcal/mol/K]
V143A	1.6	1.56
I74V	1.34	1.29
V118A	0.57	1.84
V92A	0.43	1.53
V128A	-0.07	1.51
I124V	0.98	1.72
V139A	1.75	1.37
V20A	1.51	1.44
I77V	0.93	1.67
I41V	0.41	1.82

Same assay, conditions: Homo sapiens; pH 2.7; Thermal; DSC; glycine 0.05 M; reversible: yes; structure 1LZ1; whole UniProt chain shown

Variant	Tm	change of melting temperature, mutant - wild type (higher = more stable)	heat capacity change of unfolding [kcal/mol/K]	unfolding enthalpy (calorimetric)	unfolding enthalpy (van 't Hoff) [kcal/mol]
V143A	42.2 °C	-7 °C	1.56	78 kcal/mol	
I74V	42.9 °C	-6.3 °C	1.29	71.8 kcal/mol	
V118A	46.6 °C	-2.6 °C	1.84	72.2 kcal/mol	
V92A	47.3 °C	-1.9 °C	1.53	73.7 kcal/mol	
V128A	49.5 °C	0.3 °C	1.51	80.9 kcal/mol	
I124V	44.5 °C and 43.6 °C	-4.7 °C and -5.6 °C	1.72	70.3 kcal/mol and 59.8 kcal/mol	66.7
V139A	39.9 °C	-9.3 °C	1.37	65.3 kcal/mol	
V117A	44.8 °C	-4.4 °C	1.27	67 kcal/mol	
V20A	41.3 °C	-7.9 °C	1.44	65.5 kcal/mol	
I77V	44.8 °C	-4.4 °C	1.67	71.3 kcal/mol	
I41V	47.6 °C	-1.6 °C	1.82	80.9 kcal/mol	

Same assay, conditions: Homo sapiens; pH 2.72; Thermal; DSC; glycine 0.05 M; reversible: yes; structure 1LZ1; whole UniProt chain shown

Variant	Tm [°C]	unfolding enthalpy (calorimetric) [kcal/mol]	unfolding enthalpy (van 't Hoff) [kcal/mol]
V143A	42.8	67.2	70.6
V118A	46.8	68.9	73.4
V139A	40.3	53.6	56.9
V117A	45.3	62.2	65.8

Same assay, conditions: Homo sapiens; pH 2.87; Thermal; DSC; glycine 0.05 M; reversible: yes; structure 1LZ1; whole UniProt chain shown

Variant	Tm [°C]	unfolding enthalpy (calorimetric) [kcal/mol]	unfolding enthalpy (van 't Hoff) [kcal/mol]
V143A	45.9	72.2	76.3
V128A	52.5	85.9	87.6

Same assay, conditions: Homo sapiens; pH 3.02; Thermal; DSC; glycine 0.05 M; reversible: yes; structure 1LZ1; whole UniProt chain shown

Variant	Tm [°C]	unfolding enthalpy (calorimetric) [kcal/mol]	unfolding enthalpy (van 't Hoff) [kcal/mol]
V143A	47.9	76.3	78
V118A	52	77.8	81.6
V117A	51	68.9	72.2
V20A	47.3	62	67.5

Same assay, conditions: Homo sapiens; pH 3.17; Thermal; DSC; glycine 0.05 M; reversible: yes; structure 1LZ1; whole UniProt chain shown

Variant	Tm [°C]	unfolding enthalpy (calorimetric) [kcal/mol]	unfolding enthalpy (van 't Hoff) [kcal/mol]
V143A	50.8	81.1	82.8

Same assay, conditions: Homo sapiens; pH 2.8; Thermal; DSC; glycine 0.05 M; reversible: yes; structure 1LZ1; whole UniProt chain shown

Variant	Tm [°C]	unfolding enthalpy (calorimetric) [kcal/mol]	unfolding enthalpy (van 't Hoff) [kcal/mol]
I74V	45.3	66.7	71.1

Same assay, conditions: Homo sapiens; pH 3; Thermal; DSC; glycine 0.05 M; reversible: yes; structure 1LZ1; whole UniProt chain shown

Variant	Tm [°C]	unfolding enthalpy (calorimetric) [kcal/mol]	unfolding enthalpy (van 't Hoff) [kcal/mol]
I74V	48.2	69.4	73
V128A	55	89	93.1
I124V	49.5	70.6	75.6
V139A	47	61.5	67.5
I77V	50.3	74.2	76.1

Same assay, conditions: Homo sapiens; pH 3.1; Thermal; DSC; glycine 0.05 M; reversible: yes; structure 1LZ1; whole UniProt chain shown

Variant	Tm [°C]	unfolding enthalpy (calorimetric) [kcal/mol]	unfolding enthalpy (van 't Hoff) [kcal/mol]
I74V	50.5	74.4	78.2
I124V	51.3	73.7	78
V117A	52.6	70.6	73.7
V20A	48.3	65.1	70.6
I77V	52	75.4	78.7

Same assay, conditions: Homo sapiens; pH 2.51; Thermal; DSC; glycine 0.05 M; reversible: yes; structure 1LZ1; whole UniProt chain shown

Variant	Tm [°C]	unfolding enthalpy (calorimetric) [kcal/mol]	unfolding enthalpy (van 't Hoff) [kcal/mol]
V118A	43.5	61.5	70.1
V92A	43.9	65.6	69.9

Same assay, conditions: Homo sapiens; pH 2.9; Thermal; DSC; glycine 0.05 M; reversible: yes; structure 1LZ1; whole UniProt chain shown

Variant	Tm [°C]	unfolding enthalpy (calorimetric) [kcal/mol]	unfolding enthalpy (van 't Hoff) [kcal/mol]
V118A	49.9	72.5	79.2

Same assay, conditions: Homo sapiens; pH 3.15; Thermal; DSC; glycine 0.05 M; reversible: yes; structure 1LZ1; whole UniProt chain shown

Variant	Tm [°C]	unfolding enthalpy (calorimetric) [kcal/mol]	unfolding enthalpy (van 't Hoff) [kcal/mol]
V118A	54.4	81.8	84.7

Same assay, conditions: Homo sapiens; pH 2.69; Thermal; DSC; glycine 0.05 M; reversible: yes; structure 1LZ1; whole UniProt chain shown

Variant	Tm [°C]	unfolding enthalpy (calorimetric) [kcal/mol]	unfolding enthalpy (van 't Hoff) [kcal/mol]
V92A	47.5	71.5	75.6

Same assay, conditions: Homo sapiens; pH 2.85; Thermal; DSC; glycine 0.05 M; reversible: yes; structure 1LZ1; whole UniProt chain shown

Variant	Tm [°C]	unfolding enthalpy (calorimetric) [kcal/mol]	unfolding enthalpy (van 't Hoff) [kcal/mol]
V92A	50.1	74.4	80.9
V117A	48.2	67.2	70.6

Same assay, conditions: Homo sapiens; pH 3.03; Thermal; DSC; glycine 0.05 M; reversible: yes; structure 1LZ1; whole UniProt chain shown

Variant	Tm [°C]	unfolding enthalpy (calorimetric) [kcal/mol]	unfolding enthalpy (van 't Hoff) [kcal/mol]
V92A	52.8	79.2	86.4

Same assay, conditions: Homo sapiens; pH 3.16; Thermal; DSC; glycine 0.05 M; reversible: yes; structure 1LZ1; whole UniProt chain shown

Variant	Tm [°C]	unfolding enthalpy (calorimetric) [kcal/mol]	unfolding enthalpy (van 't Hoff) [kcal/mol]
V92A	54.8	82.5	86.4

Same assay, conditions: Homo sapiens; pH 2.55; Thermal; DSC; glycine 0.05 M; reversible: yes; structure 1LZ1; whole UniProt chain shown

Variant	Tm [°C]	unfolding enthalpy (calorimetric) [kcal/mol]	unfolding enthalpy (van 't Hoff) [kcal/mol]
V128A	46.8	76.8	78

Same assay, conditions: Homo sapiens; pH 3.13; Thermal; DSC; glycine 0.05 M; reversible: yes; structure 1LZ1; whole UniProt chain shown

Variant	Tm [°C]	unfolding enthalpy (calorimetric) [kcal/mol]	unfolding enthalpy (van 't Hoff) [kcal/mol]
V128A	57.2	93.3	93.3

Same assay, conditions: Homo sapiens; pH 2.86; Thermal; DSC; glycine 0.05 M; reversible: yes; structure 1LZ1; whole UniProt chain shown

Variant	Tm [°C]	unfolding enthalpy (calorimetric) [kcal/mol]	unfolding enthalpy (van 't Hoff) [kcal/mol]
V139A	43.6	57.9	62.7

Same assay, conditions: Homo sapiens; pH 3.14; Thermal; DSC; glycine 0.05 M; reversible: yes; structure 1LZ1; whole UniProt chain shown

Variant	Tm [°C]	change of melting temperature, mutant - wild type (higher = more stable) [°C]	unfolding enthalpy (calorimetric) [kcal/mol]	unfolding enthalpy (van 't Hoff) [kcal/mol]
V139A	50.1	-7.7	67.2	72.5

Same assay, conditions: Homo sapiens; pH 2.54; Thermal; DSC; glycine 0.05 M; reversible: yes; structure 1LZ1; whole UniProt chain shown

Variant	Tm [°C]	unfolding enthalpy (calorimetric) [kcal/mol]	unfolding enthalpy (van 't Hoff) [kcal/mol]
V117A	41.4	56	59.6

Same assay, conditions: Homo sapiens; pH 2.71; Thermal; DSC; glycine 0.05 M; reversible: yes; structure 1LZ1; whole UniProt chain shown

Variant	Tm [°C]	unfolding enthalpy (calorimetric) [kcal/mol]	unfolding enthalpy (van 't Hoff) [kcal/mol]
V20A	41.4	54.5	60.3

Same assay, conditions: Homo sapiens; pH 2.68; Thermal; DSC; glycine 0.05 M; reversible: yes; structure 1LZ1; whole UniProt chain shown

Variant	Tm [°C]	unfolding enthalpy (calorimetric) [kcal/mol]	unfolding enthalpy (van 't Hoff) [kcal/mol]
I77V	44.3	62.9	67

Same assay, conditions: Homo sapiens; pH 2.81; Thermal; DSC; glycine 0.05 M; reversible: yes; structure 1LZ1; whole UniProt chain shown

Variant	Tm [°C]	change of melting temperature, mutant - wild type (higher = more stable) [°C]	unfolding enthalpy (calorimetric) [kcal/mol]	unfolding enthalpy (van 't Hoff) [kcal/mol]
I77V	46.9	-5.1	67.5	71.1

Same assay, conditions: Homo sapiens; pH 2.66; Thermal; DSC; glycine 0.05 M; reversible: yes; structure 1LZ1; whole UniProt chain shown

Variant	Tm [°C]	unfolding enthalpy (calorimetric) [kcal/mol]	unfolding enthalpy (van 't Hoff) [kcal/mol]
I41V	46.7	76.3	80.4

Same assay, conditions: Homo sapiens; pH 2.78; Thermal; DSC; glycine 0.05 M; reversible: yes; structure 1LZ1; whole UniProt chain shown

Variant	Tm [°C]	unfolding enthalpy (calorimetric) [kcal/mol]	unfolding enthalpy (van 't Hoff) [kcal/mol]
I41V	49.6	83.5	85.9

Same assay, conditions: Homo sapiens; pH 2.96; Thermal; DSC; glycine 0.05 M; reversible: yes; structure 1LZ1; whole UniProt chain shown

Variant	Tm [°C]	unfolding enthalpy (calorimetric) [kcal/mol]	unfolding enthalpy (van 't Hoff) [kcal/mol]
I41V	52.3	85.4	89.2

Same assay, conditions: Homo sapiens; pH 3.09; Thermal; DSC; glycine 0.05 M; reversible: yes; structure 1LZ1; whole UniProt chain shown

Variant	Tm [°C]	unfolding enthalpy (calorimetric) [kcal/mol]	unfolding enthalpy (van 't Hoff) [kcal/mol]
I41V	55	91.1	95
